The target of the experiment is RFP-p62 (UniProt Q13501). The experiment in a line: co-IP; COS-7 cells cotransfected with HTT fragment and RFP-p62, 100 nM bafilomycin for 4 h; lysates in SDP buffer; p62 immunoprecipitated (anti-p62 MBL PM045) overnight at 4 °C; co-precipitated HTT blotted and normalised to input.

Consider “HTT aa1-1212 138Q-C6R (domain or fragment)”, for which the fold binding relative to cleavable mHTT is 2 fold.

The record behind these values is PMC5839066.
